B1: EsxAB hybrid polypeptide (other)
chain: MAMIKMSPEEIRAKSQSYGQGSDQIRQILSDLTRAQGEIAANWEGQAFSRFEEQFQQLSPKVEKFAQLLEEIKQQLNSTADAVQEQDQQLSNNFGLQASGGGSGGYKGIKADGGKVDQAKQLAAKTAKDIEACQKQTQQLAEYIEGSDWEGQFANKVKDVLLIMAKFQEELVQPMADHQKAIDNLSQNLAKYDTLSIKQGLDRVNP
notes: also called EsxAB monomer
B2: Sta006 (other)
chain: MASCGNQGEKNNKAETKSYKMDDGKTVDIPKDPKRIAVVAPTYAGGLKKLGANIVAVNQQVDQSKVLKDKFKGVTKIGDGDVEKVAKEKPDLIIVYSTDKDIKKYQKVAPTVVVDYNKHKYLEQQEMLGKIVGKEDKVKAWKKDWEETTAKDGKEIKKAIGQDATVSLFDEFDKKLYTYGDNWGRGGEVLYQAFGLKMQPEQQKLTAKAGWAEVKQEEIEKYAGDYIVSTSEGKPTPGYESTNMWKNLKATKEGHIVKVDAGTYWYNDPYTLDFMRKDLKEKLIKAAK
notes: Seen as monomer and dimer in the formulations

Experiments:
Sta006 = biological target: B2; test: capillary electrophoresis (SDS-MW) of tetravalent formulation, pH 6, no EDTA, 25 C up to 72 h; attributed to redox reactions
Experimental: (§1) Capillary Electrophoresis analyses were performed with a Beckman Coulter PA800 instrument, SDS-MW application. The sample was prepared by mixing 90 μL of the pre-lyophilized formulation with 10 μL of TRIS-SDS buffer.

[1] = biological target: the molecule itself; test: capillary electrophoresis (SDS-MW) of tetravalent formulation, pH 6, no EDTA, 25 C up to 72 h; self-association (disulfide-linked dimer)
Experimental: as §1

[2] = biological target: the molecule itself; test: SEC-HPLC of tetravalent pre-lyophilized formulation; self-association (dimer peak)

Binder | binding result (Sta006) | binding result [1] | binding result [2]
B1 | binds | binds | –
B2 | – | – | binds

From patent US20150044251A1 (Novartis, published 2015)
